From patent publication US20200399369A1 (Sanofi, published 2020)

T1: Human CD3 (human)
T1 chain: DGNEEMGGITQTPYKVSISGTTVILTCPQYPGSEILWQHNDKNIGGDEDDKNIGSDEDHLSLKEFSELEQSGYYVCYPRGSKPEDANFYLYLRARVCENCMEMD


Legend:
[1] = target: T2, human CD38 on tumor cell lines NCI-H929 (CD38+/CD28+) and OCI-LY19 (CD38+/CD28-) (human, UniProt P28907 1-300); experiment: cell-based or functional assay
[2] = target: T2, human CD38 on tumor cell lines NCI-H929 …; experiment: cell-based or functional assay; remark: listed apart in the source
Human CD3 = target: T1, Human CD3; experiment: ELISA, antigen-coated plate
Procedure: (§1) Binding affinities to each target antigen by the CD38/CD28×CD3 T cell engagers were measured by ELISA. Briefly, each antigen was used to coat the 96-well Immuno Plate (Thermo Fisher Scientific) overnight at 4° C. using 200 ng/well in PBS (pH7.4) of each antigen. The coated plate was blocked using 5% skim milk+2% BSA in PBS for one hour at RT, followed by washing with PBS+0.25% Tween 20 three times (Aqua Max 400, Molecular Devices). Serial dilution of antibodies (trispecific and control Abs) were prepared and added onto the ELISA plates (100 μl/well in duplicate), incubated at room temperature (RT) for one hour, followed by washing 5 times with PBS+0.25% Tween 20. […] The reaction was terminated by adding 50 μl 1M H₂SO₄, and OD450 was measured using SpectraMax M5 (Molecular Devices) and analyzed using SoftMax Pro6.3 software (Molecular Devices). The final data was transferred to GraphPad Prism software (GraphPad Software, CA, USA), and plotted. EC50 was calculated using the same software.
(§2) The binding affinities of selected CD38/CD28sup×CD3mid_ENLQ DKTHT IgG4 FALA trispecific antibodies with alternative anti-CD38 binding domains for human CD3, human CD28, human CD38 and cynomolgus monkey CD38 were then determined by ELISA as described above.

cynomolgus monkey CD38 = target: T3, cynomolgus monkey CD38 (cynomolgus monkey, UniProt Q5VAN0 44-301, limits assumed); experiment: ELISA, antigen-coated plate
T3 construct: also called Cyno CD38; cynoCD38
Procedure: as §1, §2

Human CD28 = target: T4, Human CD28 (human, UniProt P10747 19-152, limits assumed); experiment: ELISA, antigen-coated plate
T4 construct: also called hCD28
Procedure: as §1, §2

human CD38 = target: T5, human CD38 (human, UniProt P28907 43-300, limits assumed); experiment: ELISA, antigen-coated plate
T5 construct: also called hCD38; huCD38
Procedure: as §1, §2

Human CD38-His = target: T6, Human CD38-His (human, UniProt P28907 43-300, limits assumed); experiment: SPR (BIACORE 3000), capture format, 1:1 Langmuir model
T6 construct: Bought antigen; also called human CD38 (SPR antigen); not shown: His tag

Binder	EC50 of in vitro killing of OCI-LY19 (CD38+/CD28-) cells, With Dara [1]	EC50 of in vitro killing of OCI-LY19 (CD38+/CD28-) cells, With human IgG1 [1]	EC50 of in vitro killing of NCI-H929 (CD38+/CD28+) cells, With Dara [2]	EC50 of in vitro killing of NCI-H929 (CD38+/CD28+) cells, With human IgG1 [2]	EC50 (Human CD3)	EC50 (cynomolgus monkey CD38)	EC50 (Human CD28)	EC50 (human CD38)	Kd (Human CD38-His)	koff (Human CD38-His)	kon (Human CD38-His)
CD38VH1/CD28sup x CD3mid_ENLQ DKTHT IgG4 FALA (other, Trispecific antibody; also called BP # 1) light 1: DIVMTQTPLSLSVTPGQPASISCKSSQSLVHENLQTYLSWYLQKPGQSPQSLIYKVSNRFSGVPDRFSGSGSGTDFTLKISRVEAEDVGVYYCGQGTQYPFTFGSGTKVEIKDKTHTDIQMTQSPSSLSASVGDRVTITCQASQNIYVWLNWYQQKPGKAPKLLIYKASNLHTGVPSRFSGSGSGTDFTLTISSLQPEDIATYYCQQGQTYPYTFGQGTKLEIKDKTHTRTVAAPSVFIFPPSDEQLKSGTASVVCLLNNFYPREAKVQWKVDNALQSGNSQESVTEQDSKDSTYSLSSTLTLSKADYEKHKVYACEVTHQGLSSPVTKSFNRGEC heavy 1: QVQLVQSGAEVVKPGASVKVSCKASGYTFTSYYIHWVRQAPGQGLEWIGSIYPGNVNTNYAQKFQGRATLTVDTSISTAYMELSRLRSDDTAVYYCTRSHYGLDWNFDVWGKGTTVTVSSDKTHTQVQLVESGGGVVQPGRSLRLSCAASGFTFTKAWMHWVRQAPGKQLEWVAQIKDKSNSYATYYADSVKGRFTISRDDSKNTLYLQMNSLRAEDTAVYYCRGVYYALSPFDYWGQGTLVTVSSDKTHTASTKGPSVFPLAPCSRSTSESTAALGCLVKDYFPEPVTVSWNSGALTSGVHTFPAVLQSSGLYSLSSVVTVPSSSLGTKTYTCNVDHKPSNTKVDKRVESKYGPPCPPCPAPEAAGGPSVFLFPPKPKDTLMISRTPEVTCVVVDVSQEDPEVQFNWYVDGVEVHNAKTKPREEQFNSTYRVVSVLTVLHQDWLNGKEYKCKVSNKGLPSSIEKTISKAKGQPREPQVCTLPPSQEEMTKNQVSLSCAVKGFYPSDIAVEWESNGQPENNYKTTPPVLDSDGSFFLVSKLTVDKSRWQEGNVFSCSVMHEALHNHYTQKSLSLSLG heavy 2: QVQLVQSGAEVVKPGASVKVSCKASGYTFTSYAMHWVKEAPGQRLEWIGYIYPGQGGTNYNQKFQGRATLTADTSASTAYMELSSLRSEDTAVYFCARTGGLRRAYFTYWGQGTLVTVSSASTKGPSVFPLAPCSRSTSESTAALGCLVKDYFPEPVTVSWNSGALTSGVHTFPAVLQSSGLYSLSSVVTVPSSSLGTKTYTCNVDHKPSNTKVDKRVESKYGPPCPPCPAPEAAGGPSVFLFPPKPKDTLMISRTPEVTCVVVDVSQEDPEVQFNWYVDGVEVHNAKTKPREEQFNSTYRVVSVLTVLHQDWLNGKEYKCKVSNKGLPSSIEKTISKAKGQPREPQVYTLPPCQEEMTKNQVSLWCLVKGFYPSDIAVEWESNGQPENNYKTTPPVLDSDGSFFLYSKLTVDKSRWQEGNVFSCSVMHEALHNHYTQKSLSLSLG light 2: DIVLTQSPATLSLSPGERATISCRASQSVSSYGQGFMHWYQQKPGQPPRLLIYGASSRATGIPARFSGSGSGTDFTLTISPLEPEDFAVYYCQQNKEDPWTFGGGTKLEIKRTVAAPSVFIFPPSDEQLKSGTASVVCLLNNFYPREAKVQWKVDNALQSGNSQESVTEQDSKDSTYSLSSTLTLSKADYEKHKVYACEVTHQGLSSPVTKSFNRGEC	0.136 nM	0.00566 nM	0.0298 nM	0.00106 nM	6.74 nM	2.13 nM	0.725 nM	7.24 nM	2.85 nM	0.00158 s⁻¹	555000 M⁻¹ s⁻¹
CD38hyb6284/CD28sup x CD3mid_ENLQ DKTHT IgG4 FALA (other, Trispecific antibody; also called BP # 7) light 1: DIVMTQTPLSLSVTPGQPASISCKSSQSLVHENLQTYLSWYLQKPGQSPQSLIYKVSNRFSGVPDRFSGSGSGTDFTLKISRVEAEDVGVYYCGQGTQYPFTFGSGTKVEIKDKTHTDIQMTQSPSSLSASVGDRVTITCQASQNIYVWLNWYQQKPGKAPKLLIYKASNLHTGVPSRFSGSGSGTDFTLTISSLQPEDIATYYCQQGQTYPYTFGQGTKLEIKDKTHTRTVAAPSVFIFPPSDEQLKSGTASVVCLLNNFYPREAKVQWKVDNALQSGNSQESVTEQDSKDSTYSLSSTLTLSKADYEKHKVYACEVTHQGLSSPVTKSFNRGEC heavy 1: QVQLVQSGAEVVKPGASVKVSCKASGYTFTSYYIHWVRQAPGQGLEWIGSIYPGNVNTNYAQKFQGRATLTVDTSISTAYMELSRLRSDDTAVYYCTRSHYGLDWNFDVWGKGTTVTVSSDKTHTQVQLVESGGGVVQPGRSLRLSCAASGFTFTKAWMHWVRQAPGKQLEWVAQIKDKSNSYATYYADSVKGRFTISRDDSKNTLYLQMNSLRAEDTAVYYCRGVYYALSPFDYWGQGTLVTVSSDKTHTASTKGPSVFPLAPCSRSTSESTAALGCLVKDYFPEPVTVSWNSGALTSGVHTFPAVLQSSGLYSLSSVVTVPSSSLGTKTYTCNVDHKPSNTKVDKRVESKYGPPCPPCPAPEAAGGPSVFLFPPKPKDTLMISRTPEVTCVVVDVSQEDPEVQFNWYVDGVEVHNAKTKPREEQFNSTYRVVSVLTVLHQDWLNGKEYKCKVSNKGLPSSIEKTISKAKGQPREPQVCTLPPSQEEMTKNQVSLSCAVKGFYPSDIAVEWESNGQPENNYKTTPPVLDSDGSFFLVSKLTVDKSRWQEGNVFSCSVMHEALHNHYTQKSLSLSLG heavy 2: QVQLLQSGAELVRPGVSVKISCTGSGYSFTNYAVHWVKQSHVKSLEWIGVISPYYGDTTYNQKFTGKATMTVDKSSSTAYMELARLTSEDSAIYFCARRFEGFYYSMDYWGQGTSVTVSSASTKGPSVFPLAPCSRSTSESTAALGCLVKDYFPEPVTVSWNSGALTSGVHTFPAVLQSSGLYSLSSVVTVPSSSLGTKTYTCNVDHKPSNTKVDKRVESKYGPPCPPCPAPEAAGGPSVFLFPPKPKDTLMISRTPEVTCVVVDVSQEDPEVQFNWYVDGVEVHNAKTKPREEQFNSTYRVVSVLTVLHQDWLNGKEYKCKVSNKGLPSSIEKTISKAKGQPREPQVYTLPPCQEEMTKNQVSLWCLVKGFYPSDIAVEWESNGQPENNYKTTPPVLDSDGSFFLYSKLTVDKSRWQEGNVFSCSVMHEALHNHYTQKSLSLSLG light 2: DVVMIQTPLSLPVSLGDQASISCRPSQSLVHSNGNTYLNWYLQRPGQSPKLLIYKVSKRFSGVPDRFSGSGSGTDFTLKISRVEAEDLGVYLCSQSTHVPLTFGSGTQLEIKRTVAAPSVFIFPPSDEQLKSGTASVVCLLNNFYPREAKVQWKVDNALQSGNSQESVTEQDSKDSTYSLSSTLTLSKADYEKHKVYACEVTHQGLSSPVTKSFNRGEC	0.081 nM	0.0421 nM	0.0336 nM	0.00437 nM	8.22 nM	0.29 nM	0.711 nM	0.253 nM	0.652 nM	0.000512 s⁻¹	785000 M⁻¹ s⁻¹
